Measurements as given in IntAct's records for PubMed 19966221.

B1: mRNA-decapping enzyme 1A (Homo sapiens), Q9NPI6 (parent)
chain: MEALSRAGQEMSLAALKQHDPYITSIADLTGQVALYTFCPKANQWEKTDIEGTLFVYRRSASPYHGFTIVNRLNMHNLVEPVNKDLEFQLHEPFLLYRNASLSIYSIWFYDKNDCHRIAKLMADVVEEETRRSQQAARDKQSPSQANGCSDHRPIDILEMLSRAKDEYERNQMGDSNISSPGLQPSTQLSNLGSTETLEEMPSGSQDKSAPSGHKHLTVEELFGTSLPKEQPAVVGLDSEEMERLPGDASQKEPNSFLPFPFEQLGGAPQSETLGVPSAAHHSVQPEITTPVLITPASITQSNEKHAPTYTIPLSPVLSPTLPAEAPTAQVPPSLPRNSTMMQAVKTTPRQRSPLLNQPVPELSHASLIANQSPFRAPLNVTNTAGTSLPSVDLLQKLRLTPQHDQIQTQPLGKGAMVASFSPAAGQLATPESFIEPPSKTAAARVAASASLSNMVLAPLQSMQQNQDPEVFVQPKVLSSAIPVAGAPLVTATTTAVSSVLLAPSVFQQTVTRSSDLERKASSPSPLTIGTPESQRKPSIILSKSQLQDTLIHLIKNDSSFLSTLHEVYLQVLTKNKDNHNL
partner: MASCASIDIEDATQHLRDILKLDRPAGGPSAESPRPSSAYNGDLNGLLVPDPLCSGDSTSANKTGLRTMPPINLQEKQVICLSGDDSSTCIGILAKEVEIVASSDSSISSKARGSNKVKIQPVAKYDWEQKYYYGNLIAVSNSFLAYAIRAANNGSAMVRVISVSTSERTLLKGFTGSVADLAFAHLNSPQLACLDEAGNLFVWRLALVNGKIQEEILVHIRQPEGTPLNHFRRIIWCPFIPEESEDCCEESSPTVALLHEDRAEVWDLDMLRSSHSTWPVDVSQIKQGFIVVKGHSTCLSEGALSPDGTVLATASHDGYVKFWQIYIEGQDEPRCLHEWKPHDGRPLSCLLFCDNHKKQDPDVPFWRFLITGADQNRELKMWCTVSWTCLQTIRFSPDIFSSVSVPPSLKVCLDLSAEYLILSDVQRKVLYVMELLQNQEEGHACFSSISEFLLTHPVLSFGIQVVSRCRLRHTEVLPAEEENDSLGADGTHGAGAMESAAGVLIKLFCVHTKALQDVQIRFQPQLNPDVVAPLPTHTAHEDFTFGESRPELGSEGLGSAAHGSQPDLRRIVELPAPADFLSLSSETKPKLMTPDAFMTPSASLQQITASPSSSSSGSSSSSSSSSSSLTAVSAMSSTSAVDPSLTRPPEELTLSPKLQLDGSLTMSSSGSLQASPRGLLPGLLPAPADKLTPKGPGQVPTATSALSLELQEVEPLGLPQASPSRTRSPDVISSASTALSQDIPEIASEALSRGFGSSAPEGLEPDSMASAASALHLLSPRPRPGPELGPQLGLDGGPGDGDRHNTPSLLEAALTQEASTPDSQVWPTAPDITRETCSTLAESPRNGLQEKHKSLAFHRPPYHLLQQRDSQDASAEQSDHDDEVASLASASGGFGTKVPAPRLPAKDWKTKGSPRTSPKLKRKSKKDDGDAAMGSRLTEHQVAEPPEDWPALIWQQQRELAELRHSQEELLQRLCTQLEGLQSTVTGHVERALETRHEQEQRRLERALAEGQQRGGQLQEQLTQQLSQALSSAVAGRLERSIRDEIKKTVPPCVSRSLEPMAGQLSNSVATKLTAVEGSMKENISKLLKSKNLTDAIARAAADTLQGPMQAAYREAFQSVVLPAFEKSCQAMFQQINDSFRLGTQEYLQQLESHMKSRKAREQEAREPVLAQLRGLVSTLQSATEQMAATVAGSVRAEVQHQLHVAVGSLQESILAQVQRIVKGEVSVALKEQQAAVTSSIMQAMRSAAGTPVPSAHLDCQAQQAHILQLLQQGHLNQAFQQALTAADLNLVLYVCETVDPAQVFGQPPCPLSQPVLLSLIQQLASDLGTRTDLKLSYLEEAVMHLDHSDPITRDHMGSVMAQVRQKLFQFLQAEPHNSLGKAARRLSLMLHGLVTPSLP
B2: mRNA-decapping enzyme 1A (Homo sapiens), Q9NPI6 (parent)
chain: B1 chain

Variants of: B1
Details: with edc4_human EDC4, Q6P2E9

Row | effect of a mutation on the interaction | Variant
1 | disrupting interaction | L554S;F561R;L565S
2 | disrupting interaction | I552S;I555R;L562E
3 | disrupting interaction | L551R;I555S;F561R;L565S

Variants of: B2
Details: with dcp2_human DCP2, Q8IU60

Row | effect of a mutation on the interaction | Variant
4 | disrupting interaction | L551R;I555S;F561R;L565S
5 | disrupting interaction | I552S;I555R;L562E
6 | disrupting interaction | L554S;F561R;L565S
